The text below walks through data of patent US20080193426A1, “MIGRATION OF HEMATOPOIETIC STEM CELLS AND PROGENITOR CELLS TO THE LIVER” (YEDA RESEARCH AND DEVELOPMENT CO., LTD., priority 2001, published 2008).

The target of the assay is T1, CXCR4 (Homo sapiens, UniProt P61073).
T1 construct: homing of human CD34+ enriched MPB cells to the liver of NOD/SCID mice; endogenous in cells; host or cells: CD34+ enriched mobilized peripheral blood cells, thawed and incubated overnight with SLF, transplanted into non-irradiated NOD/SCID mice
T1 sequence (P61073 whole entry): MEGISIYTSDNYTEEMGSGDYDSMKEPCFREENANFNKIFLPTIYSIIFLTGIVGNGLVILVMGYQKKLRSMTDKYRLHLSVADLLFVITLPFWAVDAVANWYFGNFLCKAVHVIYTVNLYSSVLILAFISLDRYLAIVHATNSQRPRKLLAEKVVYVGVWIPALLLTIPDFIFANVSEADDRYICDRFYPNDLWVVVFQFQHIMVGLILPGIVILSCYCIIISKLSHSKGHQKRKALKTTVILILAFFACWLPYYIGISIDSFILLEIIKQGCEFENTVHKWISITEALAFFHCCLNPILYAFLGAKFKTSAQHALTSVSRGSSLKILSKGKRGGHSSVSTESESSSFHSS
Description: Homing of human CD34+ enriched MPB cells to the liver of non-irradiated NOD/SCID mice, SDF-1 injected into the liver. It counts as in vivo. The following applies: for homing of human stem cells and progenitor cells to the liver (in words): SDF-1 injected into the liver. On the procedure: The following experiment was carried out in order to test whether homing of human CD34+ enriched MPB cells to the liver of NOD/SCID mice requires high concentrations of human SDF-1 in the liver.
Frozen […] mobilized peripheral blood (MPB) CD34+ cells were thawed, and incubated at 37° C. over night with 50 ng/ml SLF for recovery. In contrast to the experiment described in example 1, this experiment was carried out with non irradiated mice (not pre-conditioned) and also in non-irradiated mice in which human SDF-1 has been injected directly into the liver immediately prior transplantation. Briefly, non-irradiated NOD/SCID mice were anaesthetized and 1 microgram SDF-1 (in 50 microliter PBS) were injected into the right lobe of the liver. Next, treated and control mice were transplanted intravenously with 8×10^5 CD34+ MPB enriched cells. In one group, CD34+ cells were incubated for 30 min. (4° C.) with 10 micrograms of neutralizing anti-human CXCR4 mAb (12G5), and co-transplanted without washing. Four hours later, the injected lobe was harvested, a single cell suspension was prepared and introduced to flow cytometry analysis, using human specific anti CD34-FITC and anti CD38-PE mAb. Injection of SDF-1 to the liver creates a positive gradient in the liver and a negative gradient in the blood. Since this gradient is maintained for about 4 hours only, therefore the mice were sacrificed and homing was tested rapidly, four hours after cell injection.

For “SDF-1: human SDF-1, CXC chemokine and ligand of CXCR4, injected directly into the liver”, where the note is “1 microgram SDF-1 into right liver lobe, 8×10^5 CD34+ MPB cells IV, 12G5 10 micrograms, four hours, flow cytometry”, the “Number of human cells in the liver per 1 × 10^6 total aquired cells” value is given as 38. Also, the “% (number of human cells in the liver, SDF-1 group = 100)” value (1 microgram SDF-1 into right liver lobe, four hours after cell injection) turned out to be 100%. Also, the “homing of human stem cells and progenitor cells to the liver (in words)” value runs as follows: (four hours after cell injection) “improves significantly”; (four hours after cell injection, listed as human SDF-1) “a considerable number of human stem cells and progenitor cells were observed”.
